Reference: publication PMC2566588

Biological target: CXCR4CFP (human) (UniProt P61073)
Test: FRET or BRET; sensitized-emission FRET imaging as above; cells treated with chemokines (CCL3/MIP1α, CCL5/RANTES or CXCL12/SDF-1) for 20 min before imaging; N-FRET on the plasma membrane against the unstimulated control

CXCR4CFP (human), sequence (P61073 whole entry): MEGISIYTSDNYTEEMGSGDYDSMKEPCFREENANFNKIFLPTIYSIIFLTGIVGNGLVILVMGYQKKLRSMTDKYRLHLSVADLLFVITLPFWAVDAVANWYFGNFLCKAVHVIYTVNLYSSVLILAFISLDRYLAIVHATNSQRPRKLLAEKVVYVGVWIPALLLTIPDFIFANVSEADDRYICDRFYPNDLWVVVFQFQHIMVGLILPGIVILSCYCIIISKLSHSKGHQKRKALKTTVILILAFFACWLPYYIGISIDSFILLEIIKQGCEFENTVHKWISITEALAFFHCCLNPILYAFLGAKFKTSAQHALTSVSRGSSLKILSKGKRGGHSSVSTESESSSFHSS
CCR5YFP, P51681 1-352 (receptor; other documents disagree on this pair), sequence (P51681 whole entry): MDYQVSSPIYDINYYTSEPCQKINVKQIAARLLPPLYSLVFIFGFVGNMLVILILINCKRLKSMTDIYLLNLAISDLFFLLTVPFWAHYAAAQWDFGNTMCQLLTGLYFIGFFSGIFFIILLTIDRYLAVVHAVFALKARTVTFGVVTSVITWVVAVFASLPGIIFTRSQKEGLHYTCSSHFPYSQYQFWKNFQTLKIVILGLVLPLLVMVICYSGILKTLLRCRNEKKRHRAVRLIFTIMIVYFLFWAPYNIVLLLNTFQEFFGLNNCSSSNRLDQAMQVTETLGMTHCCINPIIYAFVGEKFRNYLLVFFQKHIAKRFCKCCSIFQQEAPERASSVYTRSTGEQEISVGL

“CCR5YFP, P51681 1-352 (receptor; other documents disagree on this pair)” gave an increase of N-FRET with CCL3/MIP1α against the unstimulated control of 30% and an increase of N-FRET with CCL5/RANTES against the unstimulated control of 30%.
